In patent publication CN104610448A (WOMEN S HOSPITAL SCHOOL OF MEDICINE ZHEJIANG UNIVERSITY, dated 2015):

Key:
[1] = biological target: T1, HPV16E6 (pEGFP-C1-HPV16E6质粒转染293T细胞所提蛋白) (HPV16, UniProt P03126 1-158); assay: western blot, 293T lysate, recombinant antibody
T1 construct: not shown: EGFP tag encoded by the pEGFP-C1 vector (N-terminal to the insert)

[2] = biological target: T2, HPV58E6 (pEGFP-C1-HPV58E6质粒转染293T细胞所提蛋白) (HPV58, UniProt P26555 1-149); assay: western blot, 293T lysate, recombinant antibody 1:100
T2 construct: Expressed from pEGFP-C1 in 293T cells, so an EGFP fusion (band at 37-55 KD); assayed as denatured cell lysate in western blot; not shown: EGFP tag encoded by the pEGFP-C1 vector (N-terminal to the insert)
T2 sequence (looked up): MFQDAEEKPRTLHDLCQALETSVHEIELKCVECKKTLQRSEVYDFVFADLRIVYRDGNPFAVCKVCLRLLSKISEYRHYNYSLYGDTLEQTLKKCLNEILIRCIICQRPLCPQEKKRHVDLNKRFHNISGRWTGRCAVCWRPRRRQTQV

T1 sequence (P03126 whole entry): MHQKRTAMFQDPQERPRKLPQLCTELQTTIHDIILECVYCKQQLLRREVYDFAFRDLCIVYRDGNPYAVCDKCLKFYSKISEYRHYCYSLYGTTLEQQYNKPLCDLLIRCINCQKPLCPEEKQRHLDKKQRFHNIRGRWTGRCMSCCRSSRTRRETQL

B1: HPV58E6特异性兔单克隆抗体 (ZJM1b-9 H2/L1 重组抗体) (antibody, V domains shown)
VH: QSVEESGGRLVTPGTPLTLTCTVSGFSLSSKTISWVRQAPGKGLEWIGAIDSNGMKAYARWAKGRFTISKSSTTVYLKITSPTTEDTATYFCVKPNNLWGPGTLVTVSS
VL: AQVLTQTPSPVSAAVGGTVTINCQSSQSVYNNNALSWYQQKPGQPPKLLIYSASKVATGVPSRFSGSGSGAQFTLTISDLECDDAATYYCQGEFSCSSADCFAFGGGTEVVVKG
notes: Recombinant rabbit monoclonal antibody made in HEK-293-6E cells from pTT5 plasmids; also called ZJM1b-9中的H2/L1; ZJM-1-9H2/L1
[1]
  binding result: no binding (tested: 1:100稀释)
[2]
  binding result: binds
